Laboratory results: patent US20150010591A1 (UNIVERSITY OF BRITISH COLUMBIA, published 2015)

Tests used:
Assay in all cases: peptide eluted from immunoaffinity-purified MHC class II of infected C57BL/6 BM-DCs, LC-MS/MS
[1] = target: T1, …, peptide of C. trachomatis FHA domain; homology to adenylate cyclase (CT664) (Chlamydia trachomatis)
T1 construct: also called CT664 peptide

[2] = target: T2, …, peptide of C. trachomatis Hypothetical protein CT472 (Chlamydia trachomatis)
T2 construct: also called CT472 peptide

[3] = target: T3, …, peptide of C. trachomatis Hypothetical protein CT289 (Chlamydia trachomatis)
T3 construct: also called CT289 peptide

[4] = target: T4, …, peptide of C. trachomatis Sigma Regulatory factor (CT424) (Chlamydia trachomatis)
T4 construct: also called RsbV peptide

[5] = target: T5, …, peptide of C. trachomatis Hypothetical protein CT144 (Chlamydia trachomatis)
T5 construct: also called CT144 peptide

[6] = target: T6, …, peptide of C. trachomatis Dihydrolipoamide acetyltransferase (CT247) (Chlamydia trachomatis)
T6 construct: also called PdhC peptide

[7] = target: T7, […], peptide of C. trachomatis Predicted D-Amino Acid Dehydrogenase (CT375) (Chlamydia trachomatis)
T7 construct: also called CT375 peptide

[8] = target: T8, IPFAKPDANLSAED, peptide of C. trachomatis Hypothetical protein CT619 (Chlamydia trachomatis)
T8 construct: also called CT619 peptide

[9] = target: T9, …, peptide of C. trachomatis Hypothetical protein CT837 (Chlamydia trachomatis)
T9 construct: also called CT837 peptide

[10] = target: T10, …, peptide of C. trachomatis Muramidase (invasin repeat family) (CT759) (Chlamydia trachomatis)
T10 construct: also called NlpD peptide

[11] = target: T11, …, peptide of C. trachomatis CHLPN 76kDa Homolog (CT622) (Chlamydia trachomatis)
T11 construct: also called CT622 peptide

[12] = target: T12, …, peptide of C. trachomatis Hypothetical protein CT143 (Chlamydia trachomatis)
T12 construct: also called CT143 peptide

Measured: binding result

B1: MHC class II (I-Ab) molecules of bone marrow derived dendritic cells from C57BL/6 mice (receptor)
MHC II alpha: EDDIEADHVGTYGISVYQSPGDIGQYTFEFDGDELFYVDLDKKETVWMLPEFGQLASFDPQGGLQNIAVVKHNLGVLTKRSNSTPATNEAPQATVFPKSPVLLGQPNTLICFVDNIFPPVINITWLRNSKSVADGVYETSFFVNRDYSFHKLSYLTFIPSDDDIYDCKVEHWGLEEPVLKHWEPEIPAPMSELTETVVCALGLSVGLVGIVVGTIFIIQGLRSGGTSRHPGPL
MHC II beta: GDSERHFVYQFMGECYFTNGTQRIRYVTRYIYNREEYVRYDSDVGEHRAVTELGRPDAEYWNSQPEILERTRAELDTVCRHNYEGPETHTSLRRLEQPNVVISLSRTEALNHHNTLVCSVTDFYPAKIKVRWFRNGQEETVGVSSTQLIRNGDWTFQVLVMLEMTPRRGEVYTCHVEHPSLKSPITVEWRAQSESAWSKMLSGIGGCVLGVIFLGLGLFIRHRSQKGPRGPPPAGLLQ
notes: whole, on cells; also called MHC class II molecules
binds: [1] | [2] | [3] | [4] | [5] | [6] | [7] | [8] | [9] | [10] | [11] | [12]
